The values that follow come from US20180105596A1 (ELSALYS BIOTECH, published 2018).

Experiment [1] concerns the target T1, extracellular domain of human Axl, Fc fusion (R&D Systems 154-AL-100) (human, UniProt P30530 26-451).
T1 construct: Bought protein; also called hAxl; hAXL; not shown: Fc of the bought ECD-Fc fusion
T1 sequence: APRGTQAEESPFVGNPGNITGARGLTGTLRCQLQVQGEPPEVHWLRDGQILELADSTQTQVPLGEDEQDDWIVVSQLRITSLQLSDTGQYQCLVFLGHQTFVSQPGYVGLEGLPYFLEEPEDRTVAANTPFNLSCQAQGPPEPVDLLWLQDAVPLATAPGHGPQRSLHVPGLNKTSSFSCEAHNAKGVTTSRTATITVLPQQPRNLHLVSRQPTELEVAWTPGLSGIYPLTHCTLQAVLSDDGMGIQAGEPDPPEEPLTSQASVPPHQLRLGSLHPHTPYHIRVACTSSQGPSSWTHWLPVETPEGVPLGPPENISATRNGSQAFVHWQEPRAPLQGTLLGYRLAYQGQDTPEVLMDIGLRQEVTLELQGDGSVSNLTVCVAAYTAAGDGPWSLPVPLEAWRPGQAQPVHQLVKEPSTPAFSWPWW
Nature of the experiment: ELISA, ECD coated 1 µg/well, scFv 1 µg/mL, anti-tag-HRP. As to the method: (§1) Extracellular domains of hTyro 3 (859-DK-100), hAxl (154-AL-100) or hMer (891-MR-100) from R&D Systems were coated onto 96-wells microtiter plates (1 μg/well) in PBS and incubated overnight at 4° C. Plates were washed three times with PBS and blocked in PBS/3% BSA for 1 hour at RT. Plates were washed as above and scFvs were added at 1 μg/mL (diluted in PBS) and incubated for 1 hour at RT. Plates were washed three times with PBST (PBS/0.01% Tween-20) and secondary antibody anti-FLAG-HRP was added (Abcam, ab49763, 1/5000 dilution in blocking buffer) for 1 hour at RT. Plates were washed as above with PBST and signal was developed with Ultra-TMB reagent (Thermo Scientific, 34028).
For orientation: An ELISA detects its analyte on a solid surface through an enzyme-linked reagent.

Experiment [2] addresses T2, extracellular domain of human Mer, Fc fusion (R&D Systems 891-MR-100) (human, UniProt Q12866 21-505).
T2 construct: Bought protein; also called hMer; hMER; not shown: Fc of the bought ECD-Fc fusion
T2 sequence: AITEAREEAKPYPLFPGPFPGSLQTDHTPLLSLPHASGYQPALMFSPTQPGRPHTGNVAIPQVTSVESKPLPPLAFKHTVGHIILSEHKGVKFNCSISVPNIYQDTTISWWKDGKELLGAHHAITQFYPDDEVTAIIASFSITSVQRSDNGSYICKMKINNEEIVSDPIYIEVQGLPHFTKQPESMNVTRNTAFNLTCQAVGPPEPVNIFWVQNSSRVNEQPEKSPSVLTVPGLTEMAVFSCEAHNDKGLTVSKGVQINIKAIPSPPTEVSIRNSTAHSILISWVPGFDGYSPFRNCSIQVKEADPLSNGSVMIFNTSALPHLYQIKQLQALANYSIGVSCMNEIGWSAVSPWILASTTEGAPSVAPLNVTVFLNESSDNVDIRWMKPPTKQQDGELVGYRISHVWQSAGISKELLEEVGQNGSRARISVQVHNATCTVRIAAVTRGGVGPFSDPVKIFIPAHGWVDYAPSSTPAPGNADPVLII
The description is as above. As to the method: as §1

Experiment [3] addresses T3, hTyro 3-ECD.
T3 construct: not the His-Strep tagged ECD m13; also called Recombinant Human Dtk-Fc Chimera (R&D Systems 859-DK-100); not shown: Human Fc, and any linker, of the commercial chimera (R&D Systems 859-DK-100)
T3 chain: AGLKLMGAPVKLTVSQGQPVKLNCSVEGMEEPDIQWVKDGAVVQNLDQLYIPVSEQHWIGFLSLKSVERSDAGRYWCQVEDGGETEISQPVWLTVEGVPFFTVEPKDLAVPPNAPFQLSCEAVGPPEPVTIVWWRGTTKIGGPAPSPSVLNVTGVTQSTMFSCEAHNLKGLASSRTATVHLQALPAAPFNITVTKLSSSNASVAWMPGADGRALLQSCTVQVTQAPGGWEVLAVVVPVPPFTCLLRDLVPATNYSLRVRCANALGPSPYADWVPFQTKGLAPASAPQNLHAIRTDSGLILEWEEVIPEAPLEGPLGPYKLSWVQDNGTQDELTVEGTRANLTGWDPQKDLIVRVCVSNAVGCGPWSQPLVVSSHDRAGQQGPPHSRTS
The experiment is described as above. How it is done:
as §1

For experiment [4], the target named is T4, Ig-1 domain fragment of human Tyro3 ECD, His-Strep tagged (human).
T4 chain: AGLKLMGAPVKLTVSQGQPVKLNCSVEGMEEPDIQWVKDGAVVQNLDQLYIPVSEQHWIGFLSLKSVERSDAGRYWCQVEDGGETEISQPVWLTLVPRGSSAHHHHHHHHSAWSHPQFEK
Nature of the experiment: sandwich ELISA, Strep-tagged fragment captured on StrepMAB plate, scFv 10 µg/mL (Table 17), anti-FLAG-HRP.

The target in experiment [5] is T5, Tyro3 ECD FNIII 1-FNIII-2.
T5 construct: also called FNIII 1 + FNIII 2 fragment of hTyro3 ECD, His-Strep tagged
T5 fragment: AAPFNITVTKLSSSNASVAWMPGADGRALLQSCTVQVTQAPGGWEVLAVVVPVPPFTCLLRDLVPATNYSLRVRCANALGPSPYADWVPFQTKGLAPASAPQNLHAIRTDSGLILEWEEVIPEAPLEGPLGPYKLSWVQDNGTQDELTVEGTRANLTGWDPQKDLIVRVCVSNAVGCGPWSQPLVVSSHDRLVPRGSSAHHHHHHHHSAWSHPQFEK
Described as above.

Experiment [6] addresses T6, Tyro3 ECD Ig2-FNIII 1.
T6 construct: also called Ig2 + FNIII 1 fragment of hTyro3 ECD, His-Strep tagged
T6 fragment: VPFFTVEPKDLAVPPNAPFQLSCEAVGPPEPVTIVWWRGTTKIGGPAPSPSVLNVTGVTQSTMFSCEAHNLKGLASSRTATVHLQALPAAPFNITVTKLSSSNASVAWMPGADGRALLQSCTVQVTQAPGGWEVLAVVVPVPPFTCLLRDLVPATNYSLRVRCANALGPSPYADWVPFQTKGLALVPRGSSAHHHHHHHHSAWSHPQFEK
The experiment is described as above.

B1: anti-Tyro3 scFv 2412 (scFv, V domains shown)
VH: EVQLVQSGADVKKPGASLTISCQASGYTFTDYWISWVRQKPGKGLEWMGRIRPLLSHTMYGPSFQGHVTISADRSTATAYLQWRSLEASDTAMYYCVRSWLATSGGTIPEYYQHWGPGTLVTVSS
VL: SYELTQPPSVSVSPGQTARITCSGDALPKKYAYWYQQKSGQAPVLVIYEDAKRVSGIPERFSGSSSGTMATLTISGAQVEDEADYYCYSASANGNYRVFGGGTKLTVL
notes: Tested as a single-chain Fv made in E. coli
For the molecule B1, the binding result in experiment [1] is reported as “no binding (tested: 1 µg/mL)”; in experiment [2] it was “no binding (tested: 1 µg/mL)”; in experiment [3], “binds”; in experiment [4], “binds”; in experiment [5], “no binding (tested: 10 µg/mL)”; in experiment [6] it was “binds”.
